From PMC9482650, “Quantitative fragmentomics allow affinity mapping of interactomes” (Nature Communications, 2022)

Key:
Assay in all cases: holdup assay
Parameters in all cases: key: below the threshold = too weak to quantify, mostly under pKd 3.1 to 4
[1] = target: IL16_3, Q14005
[2] = target: T1, DVL3, Q92997
T1 sequence (Q92997 244-331, limits assumed, looked up): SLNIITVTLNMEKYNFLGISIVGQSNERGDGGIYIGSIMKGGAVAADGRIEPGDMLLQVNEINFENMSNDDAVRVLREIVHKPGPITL

[3] = target: LIMK2, P53671
[4] = target: T2, APBA1_1, Q02410
T2 sequence (Q02410 651-752, limits assumed, looked up): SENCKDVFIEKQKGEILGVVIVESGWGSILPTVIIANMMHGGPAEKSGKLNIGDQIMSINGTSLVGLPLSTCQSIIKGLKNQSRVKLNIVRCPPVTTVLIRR

[5] = target: T3, LIN7C, Q9NUP9
T3 sequence (Q9NUP9 88-185, limits assumed, looked up): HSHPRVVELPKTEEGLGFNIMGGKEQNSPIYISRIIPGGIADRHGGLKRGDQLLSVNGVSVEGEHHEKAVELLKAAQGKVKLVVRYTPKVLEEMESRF

[6] = target: MAST2, Q6P0Q8
Chain of MAST2, Q6P0Q8 (Q6P0Q8 1099-1202): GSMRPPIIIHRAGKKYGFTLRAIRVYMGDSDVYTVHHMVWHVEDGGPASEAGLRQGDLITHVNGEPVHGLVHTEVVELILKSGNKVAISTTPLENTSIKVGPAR

[7] = target: GRIP2_7, Q9C0E4
Chain of GRIP2_7, Q9C0E4 (Q9C0E4 934-1023): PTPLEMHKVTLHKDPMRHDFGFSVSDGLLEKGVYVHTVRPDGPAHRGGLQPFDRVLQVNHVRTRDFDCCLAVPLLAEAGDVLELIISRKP

[8] = target: FRMPD2_1, Q68DX3
Chain of FRMPD2_1, Q68DX3 (Q68DX3 770-861): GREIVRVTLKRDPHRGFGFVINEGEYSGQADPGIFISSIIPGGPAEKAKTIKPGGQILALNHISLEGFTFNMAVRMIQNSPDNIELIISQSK

[9] = target: T4, PDZD2_2, O15018
T4 sequence (O15018 329-429, limits assumed, looked up): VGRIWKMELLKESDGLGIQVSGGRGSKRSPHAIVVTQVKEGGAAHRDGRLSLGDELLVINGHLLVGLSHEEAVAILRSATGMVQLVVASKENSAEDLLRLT

[10] = target: T5, SNTG1, Q9NSN8
T5 sequence (Q9NSN8 52-150, limits assumed, looked up): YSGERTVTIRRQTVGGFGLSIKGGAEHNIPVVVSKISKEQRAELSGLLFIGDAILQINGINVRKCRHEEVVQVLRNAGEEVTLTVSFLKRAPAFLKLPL

[11] = target: NHERF4_4, Q86UT5
Chain of NHERF4_4, Q86UT5 (Q86UT5 464-550): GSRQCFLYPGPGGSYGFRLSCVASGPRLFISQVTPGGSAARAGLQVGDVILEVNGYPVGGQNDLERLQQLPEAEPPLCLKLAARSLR

[12] = target: DLG4_1, P78352
Chain of DLG4_1, P78352 (P78352 62-152): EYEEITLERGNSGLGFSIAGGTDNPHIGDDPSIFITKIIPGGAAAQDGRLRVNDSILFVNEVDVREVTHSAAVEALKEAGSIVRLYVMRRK

[13] = target: T6, MPDZ_12, O75970
T6 sequence (O75970 1857-1958, limits assumed, looked up): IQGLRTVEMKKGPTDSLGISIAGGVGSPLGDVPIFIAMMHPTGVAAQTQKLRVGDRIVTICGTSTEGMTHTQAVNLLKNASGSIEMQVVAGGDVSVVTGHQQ

[14] = target: T7, LNX2_3, Q8N448
T7 sequence (Q8N448 463-564, limits assumed, looked up): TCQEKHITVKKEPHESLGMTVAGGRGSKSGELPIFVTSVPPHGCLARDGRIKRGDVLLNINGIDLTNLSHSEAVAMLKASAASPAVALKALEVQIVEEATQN

[15] = target: T8, APBA1_2, Q02410
T8 sequence (Q02410 742-832, limits assumed, looked up): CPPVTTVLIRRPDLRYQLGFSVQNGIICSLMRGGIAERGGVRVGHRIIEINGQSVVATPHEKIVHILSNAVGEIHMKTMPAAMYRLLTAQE

[16] = target: GORASP2, Q9H8Y8
[17] = target: T9, GRIP1_5, Q9Y3R0
T9 sequence (Q9Y3R0 568-668, limits assumed, looked up): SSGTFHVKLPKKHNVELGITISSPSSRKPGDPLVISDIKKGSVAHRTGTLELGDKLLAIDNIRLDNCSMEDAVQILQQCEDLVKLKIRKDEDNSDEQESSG

[18] = target: Inadl_8, Q8NI35
Chain of Inadl_8, Q8NI35 (Q8NI35 1425-1530): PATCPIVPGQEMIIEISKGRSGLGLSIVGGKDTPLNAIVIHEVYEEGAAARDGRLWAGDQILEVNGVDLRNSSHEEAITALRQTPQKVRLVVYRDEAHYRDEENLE

[19] = target: PTPN3, P26045
Chain of PTPN3, P26045 (P26045 505-587): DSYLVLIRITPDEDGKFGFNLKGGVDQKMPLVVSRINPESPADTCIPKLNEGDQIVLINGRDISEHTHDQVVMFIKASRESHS

[20] = target: T10, SNTG2, Q9NY99
T10 sequence (Q9NY99 68-166, limits assumed, looked up): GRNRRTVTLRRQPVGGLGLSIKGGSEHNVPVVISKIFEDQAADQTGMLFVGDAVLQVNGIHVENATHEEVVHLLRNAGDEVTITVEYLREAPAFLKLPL

[21] = target: Inadl_10, Q8NI35
Chain of Inadl_10, Q8NI35 (Q8NI35 1673-1763): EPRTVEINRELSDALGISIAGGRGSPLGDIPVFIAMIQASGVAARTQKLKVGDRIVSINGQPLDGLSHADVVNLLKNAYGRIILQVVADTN

[22] = target: T11, NHERF3_4, Q5T2W1
T11 sequence (Q5T2W1 373-468, limits assumed, looked up): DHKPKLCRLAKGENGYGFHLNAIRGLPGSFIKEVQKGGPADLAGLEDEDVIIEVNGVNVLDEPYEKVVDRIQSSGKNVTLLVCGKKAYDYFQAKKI

[23] = target: GIPC2, Q8TF65
Chain of GIPC2, Q8TF65 (Q8TF65 112-203): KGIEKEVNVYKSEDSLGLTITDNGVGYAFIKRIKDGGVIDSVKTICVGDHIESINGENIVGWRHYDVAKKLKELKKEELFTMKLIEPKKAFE

[24] = target: SCRIB_2, Q14160
Chain of SCRIB_2, Q14160 (Q14160 857-960): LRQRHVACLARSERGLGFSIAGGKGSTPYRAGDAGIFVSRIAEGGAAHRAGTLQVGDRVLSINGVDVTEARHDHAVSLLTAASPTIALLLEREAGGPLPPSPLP

[25] = target: GRIP2_4, Q9C0E4
Chain of GRIP2_4, Q9C0E4 (Q9C0E4 446-548): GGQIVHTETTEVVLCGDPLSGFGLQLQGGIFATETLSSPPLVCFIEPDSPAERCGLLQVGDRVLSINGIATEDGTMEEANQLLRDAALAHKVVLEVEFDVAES

[26] = target: DLG4_3, P78352
Chain of DLG4_3, P78352 (P78352 306-403): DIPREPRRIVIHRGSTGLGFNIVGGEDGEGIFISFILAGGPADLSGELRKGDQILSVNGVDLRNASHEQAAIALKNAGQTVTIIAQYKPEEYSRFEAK

[27] = target: DLG1_1, Q12959
[28] = plain residues with an end cap or a label only (N-terminal biotin on a linker: ado-ado)
[29] = plain residues with an end cap or a label only (N-terminal biotin on a linker: (peg)3)

Chain of LIMK2, P53671 (P53671 143-248): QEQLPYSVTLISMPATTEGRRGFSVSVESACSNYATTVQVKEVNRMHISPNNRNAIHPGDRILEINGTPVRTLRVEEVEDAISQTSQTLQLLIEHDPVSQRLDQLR
Chain of IL16_3, Q14005 (Q14005 1107-1207): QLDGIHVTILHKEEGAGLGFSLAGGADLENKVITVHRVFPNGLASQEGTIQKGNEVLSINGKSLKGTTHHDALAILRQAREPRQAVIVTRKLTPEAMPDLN

**Q.** Which results are given for DRIQSCLSDA [SBF1, O95248]?
**A.** pKd [1, 28]: below the threshold; pKd [2, 28]: below the threshold; pKd [3, 28]: below the threshold; pKd [4, 28]: below the threshold; pKd [5, 28]: 3.84; pKd [6, 28]: 4.35; pKd [7, 28]: below the threshold; pKd [8, 28]: below the threshold; pKd [9, 28]: below the threshold; pKd [10, 28]: below the threshold; pKd [11, 28]: below the threshold; pKd [12, 28]: below the threshold; pKd [13, 28]: 3.49; pKd [14, 28]: below the threshold; pKd [15, 28]: below the threshold; pKd [16, 28]: below the threshold; pKd [17, 28]: below the threshold; pKd [18, 28]: below the threshold; pKd [19, 28]: 4.23; pKd [20, 28]: below the threshold; pKd [21, 28]: below the threshold; pKd [22, 28]: below the threshold; pKd [23, 28]: below the threshold; pKd [24, 28]: below the threshold; pKd [25, 28]: below the threshold; pKd [26, 28]: below the threshold; pKd [27, 28]: below the threshold

**Q.** How did the pKd [1, 29] turn out when RRRRSQSRESQC [HBV-HBc, P03193] was run?
**A.** below the threshold

**Q.** What about the pKd [2, 29] of the same binder?
**A.** below the threshold

**Q.** And the pKd [3, 29]?
**A.** below the threshold

**Q.** And the pKd [4, 29]?
**A.** below the threshold

**Q.** What about the pKd [5, 29] of the same binder?
**A.** 3.66

**Q.** And the pKd [6, 29]?
**A.** 4.26

**Q.** What about the pKd [7, 29] of the same binder?
**A.** below the threshold

**Q.** What about the pKd [8, 29] of the same binder?
**A.** below the threshold

**Q.** What about the pKd [9, 29] of the same binder?
**A.** 3.88

**Q.** What about the pKd [10, 29] of the same binder?
**A.** below the threshold

**Q.** And the pKd [11, 29]?
**A.** below the threshold

**Q.** What about the pKd [12, 29] of the same binder?
**A.** 4.31

**Q.** And the pKd [13, 29]?
**A.** below the threshold

**Q.** What about the pKd [14, 29] of the same binder?
**A.** below the threshold

**Q.** And the pKd [15, 29]?
**A.** below the threshold

**Q.** What about the pKd [16, 29] of the same binder?
**A.** below the threshold

**Q.** What about the pKd [17, 29] of the same binder?
**A.** below the threshold

**Q.** And the pKd [18, 29]?
**A.** 3.58

**Q.** And the pKd [19, 29]?
**A.** 4.7

**Q.** And the pKd [20, 29]?
**A.** 4.21

**Q.** What about the pKd [21, 29] of the same binder?
**A.** below the threshold

**Q.** And the pKd [22, 29]?
**A.** below the threshold

**Q.** What about the pKd [23, 29] of the same binder?
**A.** 4.39

**Q.** And the pKd [24, 29]?
**A.** below the threshold

**Q.** What about the pKd [25, 29] of the same binder?
**A.** below the threshold

**Q.** What about the pKd [26, 29] of the same binder?
**A.** 4.58

**Q.** And the pKd [27, 29]?
**A.** 4.23

**Q.** With LKDDELKTKL [SLCO1A2, P46721] as the binder, how does the pKd [1, 28] read?
**A.** below the threshold

**Q.** And the pKd [2, 28]?
**A.** below the threshold

**Q.** And the pKd [3, 28]?
**A.** below the threshold

**Q.** And the pKd [4, 28]?
**A.** below the threshold

**Q.** And the pKd [5, 28]?
**A.** below the threshold

**Q.** And the pKd [6, 28]?
**A.** 5.28

**Q.** What about the pKd [7, 28] of the same binder?
**A.** below the threshold

**Q.** And the pKd [8, 28]?
**A.** below the threshold

**Q.** And the pKd [9, 28]?
**A.** below the threshold

**Q.** What about the pKd [10, 28] of the same binder?
**A.** below the threshold

**Q.** And the pKd [11, 28]?
**A.** below the threshold

**Q.** And the pKd [12, 28]?
**A.** below the threshold

**Q.** And the pKd [13, 28]?
**A.** below the threshold

**Q.** What about the pKd [14, 28] of the same binder?
**A.** below the threshold

**Q.** And the pKd [15, 28]?
**A.** below the threshold

**Q.** And the pKd [16, 28]?
**A.** below the threshold

**Q.** What about the pKd [17, 28] of the same binder?
**A.** below the threshold

**Q.** And the pKd [18, 28]?
**A.** below the threshold

**Q.** What about the pKd [19, 28] of the same binder?
**A.** below the threshold

**Q.** What about the pKd [20, 28] of the same binder?
**A.** below the threshold

**Q.** And the pKd [21, 28]?
**A.** below the threshold

**Q.** What about the pKd [22, 28] of the same binder?
**A.** 4.91

**Q.** And the pKd [23, 28]?
**A.** below the threshold

**Q.** What about the pKd [24, 28] of the same binder?
**A.** below the threshold

**Q.** What about the pKd [25, 28] of the same binder?
**A.** below the threshold

**Q.** What about the pKd [26, 28] of the same binder?
**A.** below the threshold

**Q.** What about the pKd [27, 28] of the same binder?
**A.** below the threshold
